According to patent US20140301946A1 (Novartis, published 2014):

Legend:
Human FGFR4 ECD [1] = target: T1, Human FGFR4 ECD (human, UniProt P22455 22-369); experiment: SPR (Biacore), antibody captured, FGFR ECD as analyte
T1 construct: whole entry is the construct; also called FGFR4 D1-D3 construct
Procedure: The immobilization level and analyte interactions were measured by response unit (RU).
Subsequently, 0.078-100 nM of FGFR receptors, diluted in a 2-fold series, were injected at a flow rate of 80 μl/min for 7 min over both reference and test flow cells. Dissociation of the binding was followed for 10 min using HBS-EP⁺ supplemented with 0.5 mg/ml of BSA and 10 μg/ml heparin as running buffer. After each injection cycle, the chip surface was regenerated with 10 mM glycine, pH 2.0 at 60 μl/min for 70 s.

Human FGFR4 ECD [2] = target: T1, Human FGFR4 ECD; experiment: SPR (Biacore), assay conditions similar to those for 12425
Human FGFR4 ECD [3] = target: T1, Human FGFR4 ECD; experiment: SET or Biacore, IgG
FGFR2 D2-D3 Construct = target: T2, FGFR2 D2-D3 Construct (Human); experiment: HDx-MS: deuterium uptake of FGFR2 D2-D3 peptides with mAb against control without mAb [A), D00032 FIG. 19 (B]
T2 construct: also called E. coli derived FGFR2 D2-D3 protein
T2 chain: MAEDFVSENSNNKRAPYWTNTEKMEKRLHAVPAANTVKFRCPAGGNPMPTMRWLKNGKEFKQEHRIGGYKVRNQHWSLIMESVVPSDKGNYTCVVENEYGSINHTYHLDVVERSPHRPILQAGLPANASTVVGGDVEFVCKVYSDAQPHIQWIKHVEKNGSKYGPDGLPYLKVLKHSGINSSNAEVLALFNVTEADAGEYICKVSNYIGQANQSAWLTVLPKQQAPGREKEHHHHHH

B1: mAb 12422 (antibody, human IgG1, kappa, V domains shown)
VH: QVQLVQSGAEVKKPGSSVKVSCKASGGTFSSYAISWVRQAPGQGLEWMGYISPYMGETHYAQKFQGRVTITADESTSTAYMELSSLRSEDTAVYYCARESYEYFDIWGQGTLVTVSS
VL: DIQMTQSPSSLSASVGDRVTITCRASQSISNDLAWYQQKPGKAPKLLIYATSILQSGVPSRFSGSGSGTDFTLTISSLQPEDFATYYCLQYYDYSYTFGQGTKVEIKR
Kd (Human FGFR4 ECD [1]): 0.95 nM

B2: mAb 20562 (antibody, human IgG1, kappa, V domains shown)
VH: EVQLLESGGGLVQPGGSLRLSCAASGFTFSDYAMSWVRQAPGKGLEWVSVIEGDASYTHYADSVRGRFTISRDNSKNTLYLQMNSLRAEDTAVYYCARERTYSSAFDYWGQGTLVTVSS
VL: DIQMTQSPSSLSASVGDRVTITCRASQDISSDLNWYQQKPGKAPKLLIYDASNLQSGVPSRFSGSGSGTDFTLTISSLQPEDFATYYCQQHYSPSHTFGQGTKVEIKR
Kd (Human FGFR4 ECD [2]): 3.3 nM

B3: mAb 12439 (antibody, human IgG1, kappa, V domains shown)
VH: QVQLVQSGAEVKKPGASVKVSCKASGYTFTSYDISWVRQAPGQGLEWMGWINPYNGGTNYAQKFQGRVTMTRDTSISTAYMELSRLRSEDTAVYYCAREGSGMIVYPGWSYAFDYWGQGTLVTVSS
VL: DIQMTQSPSSLSASVGDRVTITCRASQDISNDLGWYQQKPGKAPKLLIYAASSLQSGVPSRFSGSGSGTDFTLTISSLQPEDFATYYCQQHYHTPNTFGQGTKVEIKR
Kd (Human FGFR4 ECD [1]): 4.3 nM

B4: mAb 20811 (antibody, human IgG1, kappa, V domains shown)
VH: QVQLLESGGGLVQPGGSLRLSCAASGFTFSDYAMSWVRQAPGKGLEWVSTIEGDSNYIEYADSVKGRFTISRDNSKNTLYLQMNSLRAEDTAVYYCARERTYSSAFDYWGQGTLVTVSS
VL: DIQMTQSPSSLSASVGDRVTITCRASQDISSDLNWYQQKPGKAPKLLIYDASNLQSGVPSRFSGSGSGTDFTLTISSLQPEDFATYYCHQWYSTLYTFGQGTKVEIKR
Kd (Human FGFR4 ECD [3]): 0.075 nM | binding result (FGFR2 D2-D3 Construct): binds
